Publication PMC4359367, “DNA binding polarity, dimerization, and ATPase ring remodeling in the CMG helicase of the eukaryotic replisome” (eLife, 2014)

T1: Mcm5 (Drosophila melanogaster, UniProt Q9VGW6 1-733)
T1 construct: Mcm5, Drosophila melanogaster, subunit of Mcm2-7; source: Hi5 cells, co-infection with baculoviruses; purified as part of the CMG (anti-FLAG agarose, Mono S, Mono Q) and in whole cell lysate
T1 sequence (looked up): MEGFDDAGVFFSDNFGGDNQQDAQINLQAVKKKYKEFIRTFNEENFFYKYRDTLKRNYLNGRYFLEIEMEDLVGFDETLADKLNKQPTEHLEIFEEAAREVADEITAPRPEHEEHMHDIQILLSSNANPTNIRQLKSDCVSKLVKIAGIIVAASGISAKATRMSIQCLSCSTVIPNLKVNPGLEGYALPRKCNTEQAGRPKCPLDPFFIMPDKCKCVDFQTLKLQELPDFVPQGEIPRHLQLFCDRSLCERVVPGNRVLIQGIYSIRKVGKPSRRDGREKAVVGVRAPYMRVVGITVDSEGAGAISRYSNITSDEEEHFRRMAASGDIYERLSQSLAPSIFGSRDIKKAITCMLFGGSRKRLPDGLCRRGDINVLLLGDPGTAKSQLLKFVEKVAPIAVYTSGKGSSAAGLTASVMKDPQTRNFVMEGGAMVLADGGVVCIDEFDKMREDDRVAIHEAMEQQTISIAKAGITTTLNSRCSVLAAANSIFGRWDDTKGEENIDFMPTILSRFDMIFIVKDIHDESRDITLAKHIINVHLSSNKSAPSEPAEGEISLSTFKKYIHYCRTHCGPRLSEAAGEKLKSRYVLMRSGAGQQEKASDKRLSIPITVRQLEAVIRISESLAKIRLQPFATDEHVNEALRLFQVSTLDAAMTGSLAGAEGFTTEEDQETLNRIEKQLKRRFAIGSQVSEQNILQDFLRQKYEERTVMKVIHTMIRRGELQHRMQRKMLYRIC

T2: Mcm2 (Drosophila melanogaster, UniProt P49735 1-887)
T2 construct: Mcm2, Drosophila melanogaster, subunit of Mcm2-7; source: Hi5 cells, co-infection with baculoviruses; purified as part of the CMG (anti-FLAG agarose, Mono S, Mono Q) and in whole cell lysate
T2 sequence (looked up): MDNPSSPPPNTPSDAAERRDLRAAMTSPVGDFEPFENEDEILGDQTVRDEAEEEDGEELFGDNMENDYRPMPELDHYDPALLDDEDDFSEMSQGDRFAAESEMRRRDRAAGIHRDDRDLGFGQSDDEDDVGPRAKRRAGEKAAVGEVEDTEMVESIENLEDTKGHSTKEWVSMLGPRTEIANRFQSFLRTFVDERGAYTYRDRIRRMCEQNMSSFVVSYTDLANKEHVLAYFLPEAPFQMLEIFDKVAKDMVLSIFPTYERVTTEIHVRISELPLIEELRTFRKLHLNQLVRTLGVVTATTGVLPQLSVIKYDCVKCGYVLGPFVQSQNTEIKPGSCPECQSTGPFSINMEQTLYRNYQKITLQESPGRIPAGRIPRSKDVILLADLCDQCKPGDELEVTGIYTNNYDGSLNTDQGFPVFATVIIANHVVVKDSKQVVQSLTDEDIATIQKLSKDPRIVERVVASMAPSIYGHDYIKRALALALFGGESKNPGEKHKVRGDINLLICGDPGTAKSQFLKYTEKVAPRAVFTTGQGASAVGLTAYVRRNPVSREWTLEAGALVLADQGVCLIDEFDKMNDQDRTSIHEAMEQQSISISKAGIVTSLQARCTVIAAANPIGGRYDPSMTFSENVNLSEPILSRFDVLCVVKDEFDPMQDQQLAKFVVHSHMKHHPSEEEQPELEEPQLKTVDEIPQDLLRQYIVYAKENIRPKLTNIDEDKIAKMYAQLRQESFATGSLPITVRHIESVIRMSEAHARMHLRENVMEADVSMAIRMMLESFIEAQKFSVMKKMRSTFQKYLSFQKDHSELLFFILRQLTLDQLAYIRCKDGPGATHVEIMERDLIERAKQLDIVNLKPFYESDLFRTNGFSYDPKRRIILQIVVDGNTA

B1: Psf1 (natural protein, Drosophila melanogaster, UniProt Q9W0I7 1-202, looked up)
chain: MSRQTKMFGEKAFDLLKELERSSQTIPAFDDDGVRQVLEEIKAIFEENVAQASSYNASGDRSLWPLLNFRHAALQRNKRCLLAYLYERCRRIKALRWEFGPIIPGDIKQALCEPEVTFFNNYSKSLAAYMCSAGYNQGLPIDLTNNLRPPKSLYIEVRCMEDYGKFELDDGEVIHLKKNSQHYLPRAQVESLVRQGILHHIA
notes: Psf1, Drosophila melanogaster, subunit of GINS; the printed B-domain region 185-202 ends at the C-terminus; source: Hi5 cells, co-infection with baculoviruses; purified as part of the CMG (anti-FLAG agarose, Mono S, Mono Q) and in whole cell lysate
B2: Cdc45 (natural protein, Drosophila melanogaster, UniProt O96989 1-575, looked up)
chain: MFVQDLRNDFYRQLVGKRILIVVNYDIDAICASRILQALFKYDHMLYTVVPIMGVTGLKRAYGEHQGDVKYVVLVNCGGCVDIVELLQPSDDVTFFICDSHRPLDVCNIYSDRQVCILGDASLEENIPAFETIFYDSEGEDEDEDESSDTEQQHDDSGAGESDQEDQAPRSRKLSRLERHEQRILKQRARRQWESERDRIMFEYTQFSYYGRSAALMVFELAWKLSKDNMDLLWWAIVGITEQLLLGKIESGAYTLELEQIQSHVSRLTNKTNDQNTMSASKITFENDLHLVLYRHWPVTESMRYSRYSSCQLKLWTLRGEKRLHELLLEMGLPLVHARQTYGAMDLVLRKEFFSMVERLAEKYDIADIVYGTFTLSYGYRSRYAAADYVYALLAIMESVKKHKTPEDCFLEASDALSRQHKQLLSAGIDQAKLLHAAVFRQVQSSLEARQVHSAGSFFYYVLQEEHAFFSYPYALGLLARFLLRGHVATSRARQASDLPLIASCPLNASEGMCLLVGIVPVREDSPRNFFGKAFEQAAQKSGVALLQDFFEPAVVQLRQSDLTRFLDSLTVLLA
notes: Cdc45, Drosophila melanogaster; also called DmCdc45; source: Hi5 cells, co-infection with baculoviruses; purified as part of the CMG (anti-FLAG agarose, Mono S, Mono Q) and in whole cell lysate

What was measured:
[1] = target: Cdc45/Mcm2-7/GINS (CMG) helicase (Drosophila melanogaster) (UniProt P49735); test: negative-stain EM, reference-free 2D class averages; purified CMG with 3'-tailed DNA and ATPγS; dimeric particles compared with 2D projections of double-hexamer models in six registers
Cdc45 = target: B2; test: negative-stain EM single-particle reconstruction; purified CMG mixed with a 20 bp duplex DNA bearing a 3' dT40 tail and 0.1 mM ATPγS, Superose 6 peak fraction, uranyl formate stain; 18 Å map; crystal structures and homology models docked; details: both partners purified
Mcm5 = target: T1, Mcm5; test: as above; details: both partners purified
Mcm2 = target: T2, Mcm2; test: as above; details: both partners purified

## Cdc45/Mcm2-7/GINS (CMG) helicase (from UniProt P49735 1-887; Q9XYU1 1-819; Q26454 1-866; Q9VGW6 1-733; Q9V461 1-817; Q9XYU0 1-720; Q9W0I7 1-202; Q9VQY9 1-203; Q9VBI1 1-228; O96989 1-575) (complex)
[1]
  percent of CMG particles in dimers: 5%
  stoichiometry N: 2

## B1
Cdc45
  binding result: binds

## B2
Mcm5
  binding result: binds
Mcm2
  binding result: binds
